Assay [1] deals with SARS-CoV-2 spike S2P (ectodomain of the SARS-CoV-2 S trimer) (SARS-CoV-2, ancestral (P0DTC2 sequence)).
For assay [2] the target is unchanged. Description: SPR.

In assay [1], “2-15 IgG with the paratope somatic hypermutation Y32F (light chain) reverted to germline (antibody)” showed a pseudovirus neutralization potency, fold reduction against 2-15 IgG of 42 fold. In assay [2], this substance had a fold reduction of binding affinity against 2-15 IgG of 12 fold.

The record behind these values is paper PMC7972811.
